Key:
[1] = target: CD64 (human) (UniProt P12314); assay: cell-based or functional assay
[2] = target: CD64 (human) (UniProt P12314)
[3] = target: CD64 (human, UniProt P12314 16-374); assay: cell-based or functional assay

m22(scFv)2-ETA' gave an IC50 of growth inhibition (XTT-based colorimetric assay) on HL-60 cells [1] of 0.0117 µg/mL and an IC50 of growth inhibition (XTT-based colorimetric assay) on U937 cells [1] of 0.0135 µg/mL.

Work on moAb m22 (antibody) yielded a % inhibition of m22(scFv)-ETA' binding [2] of 70%.

B1: m22(scFv)-ETA' (scFv)
chain 1: QVQLVESGGGVVQPGRSLRLSCSSSGFIFSDNYMYWVRQAPGKGLEWVATISDGGSYTYYPDSVKGRFTISRDNSKNTLFLQMDSLRPEDTGVYFCARGYYRYEGAMDYWGQGTPVTVSS
chain 2: DIQLTQSPSSLSASVGDRVTITCKSSQSVLYSSNQKNYLAWYQQKPGKAPKLLIYWASTRESGVPSRFSGSGSGTDFTFTISSLQPEDIATYYCHQYLSSWTFGQGTKLEIK
With B1 the “IC50 of growth inhibition (XTT-based colorimetric assay) on HL-60 cells” value [3] was 0.0116 µg/mL and the “IC50 of growth inhibition (XTT-based colorimetric assay) on U937 cells” value [3] was 0.0129 µg/mL.

— patent EP1694709B1 (Fraunhofer-Gesellschaft zur Förderung der angewandten …, dated 2010)
